# From the RNAGym collection of RNA variant scans (doi:10.7554/elife.80360)
# B1: Hairpin Ribozyme (parent)
# chain: GUCCUCUUUCACGUGCGCGUGAAAGAGAGAAGUGAACCAGAGAAACACACGUUGUGGUAUAUUACCUGGUA
# Variants of: B1
# Assay: self-cleavage, relative activity (ratio to wild type); higher = more cleavage; co-transcriptional
row,Variant,self-cleavage
1,GUCCUCUUUCACGGGCGCGUGAAAGAGAGAAGUGAACCAGAGAAACACACGUUGUGGUACAUUACCUGGUA [U14G U60C],1.23
2,GUCCUCUGUCACGUGCGCGUGAAAGAGAGAAGUGAACCAGAGAAACACACGUUGUGGUUUAUUACCUGGUA [U8G A59U],0.188
3,GUCCUCUUUCACGUGCGCGUGUAAGAGAGAAGUGAACAAGAGAAACACACGUUGUGGUAUAUUACCUGGUA [A22U C38A],0.155
4,GUCCUCUUUCAGGUGCGCGUGAAAGAGAGAAGUGAACCAGAGAAACACACGAUGUGGUAUAUUACCUGGUA [C12G U52A],0.922
5,GUCCUAUUUCACGUGCGCGUGAAAGAGAGAAGUGAACCAGAGAAACACACGUUGUGGUAUAUUUCCUGGUA [C6A A64U],0.163
6,GUCCUCUUUCACGUGCGCGUGAAAGAACGAAGUGAACCAGAGAAACACACGUUGUGGUAUAUUACCUGGUA [G27A A28C],0.295
7,GUCCACUUUCACGUGCGCGUGAAAGAGAGAAGUGAACCAGAGAAACACACGUUGUGGUAUUUUACCUGGUA [U5A A61U],0.185
8,CUCCUCUUUCACGUGCGCGUGAACGAGAGAAGUGAACCAGAGAAACACACGUUGUGGUAUAUUACCUGGUA [G1C A24C],0.32
9,GUCCUCUUUCACGUGCGCGUGAAAGAGAGAAGUGAACCAGAGAAACACACGUUGUGGUAUUUUACCUGGUA [A61U],0.213
10,GUCCUCUUUCACGUGCGCGUGAAAGAGAGAAGUGAACCAGAGAAACACACGUUGUGGUAGAAUACCUGGUA [U60G U62A],0.203
11,GUCCUCUUUCACGUGCGCGUGAAACAGAGAAGUGAACCAGAGAAACACACGUUGUGGUAUAUUACCUCGUA [G25C G68C],0.187
12,GUCCUCUUCCACGUGCGCGUGAAAGCGAGAAGUGAACCAGAGAAACACACGUUGUGGUAUAUUACCUGGUA [U9C A26C],0.426
13,GUCCGCUUUCACGUGCACGUGAAAGAGAGAAGUGAACCAGAGAAACACACGUUGUGGUAUAUUACCUGGUA [U5G G17A],0.362
14,GUCCUCUUUCACCUGCGCGUGAAAGAGAGAAGUGAACCAGAGAAACACACGUUGUGGUAUAUUACCUAGUA [G13C G68A],0.219
15,GUCCUCUUUCACGUGCGCGUGAAAGAGAGAAGGGAACCAGAGACACACACGUUGUGGUAUAUUACCUGGUA [U33G A44C],0.0874
16,GCCCUCUUUCACGUGCGCGUGAAAGAGAGAAGUGAACCAGAGAAACACACGUUGUGGUAUAGUACCUGGUA [U2C U62G],0.0944
17,GUCCUCUUUCACGUGCGCGUGAGAGAGAGAAGUGAACCAGAGAAACACACGUUGUGGUAUAUUACCGGGUA [A23G U67G],0.18
18,GUCCUCUUUCACGUGCGCGUGGAAGAGAGAAGUGAACCAGAGAAACACACGUUGUGGUAUAGUACCUGGUA [A22G U62G],0.122
19,GUCCUCUUUCACGUGCGCGUGAAAGAGAGCAGUGAACCAGACAAACACACGUUGUGGUAUAUUACCUGGUA [A30C G42C],0.094

row,Variant,self-cleavage
1,GUCCUCUUUCACGUGCGCGUGAAAGAGAGAAUAGAACCAGAGAAACACACGUUGUGGUAUAUUACCUGGUA [G32U U33A],0.148
2,GUCCUCUUUCACGUGCGCGUGAAAGAGAGAAGUGAACCAGAGAAACAAACGUUGUGGCAUAUUACCUGGUA [C48A U58C],0.154
3,GUCGUCUUUCACGUGCGCGUGAAAGAGAGAAGAGAACCAGAGAAACACACGUUGUGGUAUAUUACCUGGUA [C4G U33A],0.154
4,GUCCUCUUUCACGUGCGCGUGAAAGAGAGAAGUGAACCAGAGAAACACACGUUGCGGUAUAUUACCUGGAA [U55C U70A],0.143
5,GUCCUCUUUCACGUACGCGUGAAAGAGAGAAGUGAACCUGAGAAACACACGUUGUGGUAUAUUACCUGGUA [G15A A39U],0.351
6,GUCCUCUUUUUCGUGCGCGUGAAAGAGAGAAGUGAACCAGAGAAACACACGUUGUGGUAUAUUACCUGGUA [C10U A11U],0.577
7,GUCCUCUUUCACGUGCGCGUGAAAGAGAGUAGUGGACCAGAGAAACACACGUUGUGGUAUAUUACCUGGUA [A30U A35G],0.217
8,GUCCUCUUUCACGUGGGCGUGAAAGAGAGAAGUGAACCAGCGAAACACACGUUGUGGUAUAUUACCUGGUA [C16G A41C],1.12
9,GUCCUCUAUCACGUGCGCGUGAAAGAGAGAAGUGUACCAGAGAAACACACGUUGUGGUAUAUUACCUGGUA [U8A A35U],0.459
10,GUCCUCUUUCACGUGCGCGGGAAAGAGAGAAGUGAACCAGAGAAACACACGUUGUGUUAUAUUACCUGGUA [U20G G57U],0.212
11,GUCCUCUUUCACGUGCGCGUGAAAGAGAGAAGUGAACCAGAGAAACACACUUUGUGGUAUAUUGCCUGGUA [G51U A64G],0.544
12,CUCCUCUUUCACGUGCGCGUGAAAGAGAGAAGUGAUCCAGAGAAACACACGUUGUGGUAUAUUACCUGGUA [G1C A36U],0.338
13,GUCCUCUUUCACGUGCGCGUGAAAGAGAGAAGUUAACCAGAGAAACACACGUUGAGGUAUAUUACCUGGUA [G34U U55A],1.48
14,GUCCUGUUUCACGUGCGCGUGAAAGAGAGAAGUGAACCAGAGAAACACACGUUGUGGUAUAUAACCUGGUA [C6G U63A],0.125
15,GUCCUCUUUCACGUGCGCGUGAAAGAGAGAAGUGAACCGGAGAAACACACGUUGUGGUUUAUUACCUGGUA [A39G A59U],0.153
16,GUCCUCUUUCACGUGCGCGUGAAAGAGAGAAGGAAACCAGAGAAACACACGUUGUGGUAUAUUACCUGGUA [U33G G34A],0.317
17,GUCCUCUUUCACGUGCGCGUGAAAGAGAGAAGUGAACCAGAGAAACACACGUUGUCGUAUUUUACCUGGUA [G56C A61U],0.177
18,GUCCUCUUUCACGUGCGCGUGAAAGAGACAAGUGAACCAGAGAAACACACGUUGUGCUAUAUUACCUGGUA [G29C G57C],0.131
19,AUCCUCUUUCACGUGCGCGUGAAAGAGAGAAGUGAACCAGAGAAACACACGUUGUGGUAUAUUACCUGGCA [G1A U70C],0.154
